± gives the uncertainty stated by the source.
Test: abundance fitness (aPCA) (normalised: wild type 0, dead -1); higher = more abundant; growth selection in yeast, the domain comes from the species named
Conditions: Homo sapiens
With “BAG family molecular chaperone regulator 3 P55H, O95817” the abundance fitness was -0.636 ± 0.46.
Work on “BAG family molecular chaperone regulator 3 P55I, O95817” yielded an abundance fitness of 0.135 ± 0.16.
In the case of “BAG family molecular chaperone regulator 3 P55K, O95817”, the abundance fitness is reported as -0.094 ± 0.12.
In the case of “BAG family molecular chaperone regulator 3 P55L, O95817”, the abundance fitness is reported as -0.133 ± 0.095.
Substance “BAG family molecular chaperone regulator 3 P55M, O95817” has an abundance fitness of -0.356 ± 0.2.
For “BAG family molecular chaperone regulator 3 P55Q, O95817”, the abundance fitness was 0.081 ± 0.19.
“BAG family molecular chaperone regulator 3 P55R, O95817” showed an abundance fitness of -0.306 ± 0.11.
For “BAG family molecular chaperone regulator 3 P55S, O95817”, the abundance fitness was 0.153 ± 0.17.
With “BAG family molecular chaperone regulator 3 P55T, O95817” the abundance fitness was -0.427 ± 0.23.
Work on “BAG family molecular chaperone regulator 3 P55W, O95817” yielded an abundance fitness of -0.508 ± 0.28.
With “BAG family molecular chaperone regulator 3 P55Y, O95817” the abundance fitness was -0.018 ± 0.29.
“BAG family molecular chaperone regulator 3 P59V, O95817” showed an abundance fitness of 0.263 ± 0.34.
With “BAG family molecular chaperone regulator 3 Q11A, O95817” the abundance fitness was 0.495 ± 0.34.
In the case of “BAG family molecular chaperone regulator 3 Q11D, O95817”, the abundance fitness is reported as -0.046 ± 0.4.
Substance “BAG family molecular chaperone regulator 3 Q11G, O95817” has an abundance fitness of 0.771 ± 0.065.
With “BAG family molecular chaperone regulator 3 Q11H, O95817” the abundance fitness was -0.246 ± 0.26.
For “BAG family molecular chaperone regulator 3 Q11K, O95817”, the abundance fitness was 1.01 ± 0.19.
Work on “BAG family molecular chaperone regulator 3 Q11L, O95817” yielded an abundance fitness of -0.227 ± 0.32.
“BAG family molecular chaperone regulator 3 Q11M, O95817” gave an abundance fitness of 1.03 ± 0.39.
“BAG family molecular chaperone regulator 3 Q11P, O95817” gave an abundance fitness of -0.132 ± 0.41.
“BAG family molecular chaperone regulator 3 Q11R, O95817” gave an abundance fitness of 0.463 ± 0.11.
With “BAG family molecular chaperone regulator 3 Q11S, O95817” the abundance fitness was 0.63 ± 0.11.
In the case of “BAG family molecular chaperone regulator 3 Q11T, O95817”, the abundance fitness is reported as 0.18 ± 0.49.
With “BAG family molecular chaperone regulator 3 Q11V, O95817” the abundance fitness was 0.619 ± 0.1.
In the case of “BAG family molecular chaperone regulator 3 Q11Y, O95817”, the abundance fitness is reported as 0.795 ± 0.15.
Substance “BAG family molecular chaperone regulator 3 Q33A, O95817” has an abundance fitness of 0.032 ± 0.15.
In the case of “BAG family molecular chaperone regulator 3 Q33C, O95817”, the abundance fitness is reported as -0.352 ± 0.2.
“BAG family molecular chaperone regulator 3 Q33E, O95817” showed an abundance fitness of 0.11 ± 0.064.
Work on “BAG family molecular chaperone regulator 3 Q33F, O95817” yielded an abundance fitness of -0.183 ± 0.27.
For “BAG family molecular chaperone regulator 3 Q33G, O95817”, the abundance fitness was 0.128 ± 0.059.
In the case of “BAG family molecular chaperone regulator 3 Q33H, O95817”, the abundance fitness is reported as -0.708 ± 0.49.
Work on “BAG family molecular chaperone regulator 3 Q33I, O95817” yielded an abundance fitness of -0.499 ± 0.35.
Substance “BAG family molecular chaperone regulator 3 Q33K, O95817” has an abundance fitness of 0.035 ± 0.21.
Substance “BAG family molecular chaperone regulator 3 Q33M, O95817” has an abundance fitness of -0.29 ± 0.3.
In the case of “BAG family molecular chaperone regulator 3 Q33N, O95817”, the abundance fitness is reported as -0.357 ± 0.29.
For “BAG family molecular chaperone regulator 3 Q33P, O95817”, the abundance fitness was -0.591 ± 0.3.
In the case of “BAG family molecular chaperone regulator 3 Q33S, O95817”, the abundance fitness is reported as -0.265 ± 0.14.
Work on “BAG family molecular chaperone regulator 3 Q33T, O95817” yielded an abundance fitness of -0.583 ± 0.3.
“BAG family molecular chaperone regulator 3 Q33V, O95817” gave an abundance fitness of -0.428 ± 0.068.
For “BAG family molecular chaperone regulator 3 Q33W, O95817”, the abundance fitness was -0.384 ± 0.081.
Work on “BAG family molecular chaperone regulator 3 Q33Y, O95817” yielded an abundance fitness of -0.545 ± 0.46.
“BAG family molecular chaperone regulator 3 R19A, O95817” showed an abundance fitness of -0.071 ± 0.11.
For “BAG family molecular chaperone regulator 3 R19C, O95817”, the abundance fitness was -0.341 ± 0.19.
“BAG family molecular chaperone regulator 3 R19D, O95817” gave an abundance fitness of -0.499 ± 0.31.
With “BAG family molecular chaperone regulator 3 R19E, O95817” the abundance fitness was 0.208 ± 0.15.
Substance “BAG family molecular chaperone regulator 3 R19F, O95817” has an abundance fitness of -0.743 ± 0.32.
Substance “BAG family molecular chaperone regulator 3 R19G, O95817” has an abundance fitness of -0.35 ± 0.12.
Substance “BAG family molecular chaperone regulator 3 R19H, O95817” has an abundance fitness of -0.399 ± 0.18.
Substance “BAG family molecular chaperone regulator 3 R19I, O95817” has an abundance fitness of 0.367 ± 0.17.
Substance “BAG family molecular chaperone regulator 3 R19K, O95817” has an abundance fitness of 0.042 ± 0.11.
For “BAG family molecular chaperone regulator 3 R19L, O95817”, the abundance fitness was -0.455 ± 0.17.
For “BAG family molecular chaperone regulator 3 R19M, O95817”, the abundance fitness was -0.37 ± 0.28.
“BAG family molecular chaperone regulator 3 R19N, O95817” showed an abundance fitness of -0.125 ± 0.13.
“BAG family molecular chaperone regulator 3 R19P, O95817” gave an abundance fitness of -0.253 ± 0.23.
Work on “BAG family molecular chaperone regulator 3 R19Q, O95817” yielded an abundance fitness of -0.333 ± 0.084.
“BAG family molecular chaperone regulator 3 R19S, O95817” gave an abundance fitness of -0.006 ± 0.062.
“BAG family molecular chaperone regulator 3 R19T, O95817” gave an abundance fitness of -0.169 ± 0.096.
“BAG family molecular chaperone regulator 3 R19V, O95817” gave an abundance fitness of -0.221 ± 0.073.
For “BAG family molecular chaperone regulator 3 R19W, O95817”, the abundance fitness was -0.342 ± 0.073.
For “BAG family molecular chaperone regulator 3 R19Y, O95817”, the abundance fitness was -0.27 ± 0.094.
Substance “BAG family molecular chaperone regulator 3 R45C, O95817” has an abundance fitness of -0.165 ± 0.17.
Work on “BAG family molecular chaperone regulator 3 R45D, O95817” yielded an abundance fitness of -0.557 ± 0.32.
“BAG family molecular chaperone regulator 3 R45E, O95817” gave an abundance fitness of -0.422 ± 0.2.
“BAG family molecular chaperone regulator 3 R45F, O95817” showed an abundance fitness of -0.4 ± 0.087.
Substance “BAG family molecular chaperone regulator 3 R45G, O95817” has an abundance fitness of -0.087 ± 0.085.
In the case of “BAG family molecular chaperone regulator 3 R45H, O95817”, the abundance fitness is reported as 0.367 ± 0.25.
“BAG family molecular chaperone regulator 3 R45K, O95817” showed an abundance fitness of -0.043 ± 0.077.
“BAG family molecular chaperone regulator 3 R45L, O95817” showed an abundance fitness of -0.594 ± 0.18.
Substance “BAG family molecular chaperone regulator 3 R45M, O95817” has an abundance fitness of -0.442 ± 0.2.
With “BAG family molecular chaperone regulator 3 R45N, O95817” the abundance fitness was 0.54 ± 0.18.
For “BAG family molecular chaperone regulator 3 R45P, O95817”, the abundance fitness was -0.321 ± 0.35.
With “BAG family molecular chaperone regulator 3 R45Q, O95817” the abundance fitness was 0.541 ± 0.17.
In the case of “BAG family molecular chaperone regulator 3 R45S, O95817”, the abundance fitness is reported as -0.354 ± 0.084.
“BAG family molecular chaperone regulator 3 R45T, O95817” gave an abundance fitness of -0.409 ± 0.28.
For “BAG family molecular chaperone regulator 3 R45V, O95817”, the abundance fitness was -0.692 ± 0.091.
“BAG family molecular chaperone regulator 3 R45W, O95817” gave an abundance fitness of -0.843 ± 0.18.
Substance “BAG family molecular chaperone regulator 3 R45Y, O95817” has an abundance fitness of -0.229 ± 0.22.
“BAG family molecular chaperone regulator 3 R53A, O95817” showed an abundance fitness of -0.422 ± 0.14.
“BAG family molecular chaperone regulator 3 R53C, O95817” showed an abundance fitness of -0.551 ± 0.23.
Substance “BAG family molecular chaperone regulator 3 R53D, O95817” has an abundance fitness of -0.822 ± 0.49.
“BAG family molecular chaperone regulator 3 R53E, O95817” gave an abundance fitness of -0.646 ± 0.14.
With “BAG family molecular chaperone regulator 3 R53G, O95817” the abundance fitness was -0.295 ± 0.09.
In the case of “BAG family molecular chaperone regulator 3 R53H, O95817”, the abundance fitness is reported as -0.611 ± 0.3.
“BAG family molecular chaperone regulator 3 R53K, O95817” gave an abundance fitness of -0.424 ± 0.28.
Substance “BAG family molecular chaperone regulator 3 R53L, O95817” has an abundance fitness of -0.732 ± 0.09.
“BAG family molecular chaperone regulator 3 R53M, O95817” gave an abundance fitness of -0.296 ± 0.25.
Substance “BAG family molecular chaperone regulator 3 R53N, O95817” has an abundance fitness of -0.257 ± 0.44.
“BAG family molecular chaperone regulator 3 R53P, O95817” showed an abundance fitness of -0.653 ± 0.083.
Work on “BAG family molecular chaperone regulator 3 R53S, O95817” yielded an abundance fitness of -0.523 ± 0.18.
“BAG family molecular chaperone regulator 3 R53T, O95817” showed an abundance fitness of -0.225 ± 0.25.
For “BAG family molecular chaperone regulator 3 R53V, O95817”, the abundance fitness was -0.715 ± 0.22.
